Measurements as given in doi:10.64898/2025.12.17.694860, “Structural basis for the inhibition of Trypanosoma brucei enolase by a camelid single-domain antibody” (bioRxiv, 2025).

What was measured:
[1] = molecular target: T1, Trypanosoma brucei enolase (Trypanosoma brucei (sequence identical …)); experiment: ITC; settings: both partners purified
T1 construct: Enolase (phosphopyruvate hydratase) of Trypanosoma brucei; printed MM = 48.4 kDa; Homodimer by analytical SEC and in the crystal; also called TbrENO; T. brucei enolase; source: E. coli, purified (IMAC, SEC); not shown: His tag, N-terminal, kept

[2] = molecular target: T1, Trypanosoma brucei enolase; experiment: SEC; settings: both partners purified

B1: sdAbR1-10 (VHH)
VHH: QVQLQESGGGLVQPGGSLRLSCAAPGSIFSIFSGNIMGWYRQAPGKQRDFVASISSGGATNYADSVKGRFTISRDNAKNTVYLQMNNLKPEDTAVYYCNTVGGVHTNSWGQGTQVTVSS
With B1 the Kd [1] was ~20 nM, the “stoichiometry N” value [1] was ~1 sdAbR1-10 per TbrENO monomer and the “stoichiometry N” value [2] was 2 sdAbR1-10 per TbrENO dimer.
